Source: PMC11969024, “Development of chemokine network inhibitors using combinatorial saturation mutagenesis” (Communications Biology, 2025)

B1: peptide HD2 (from tick evasin EVA4) / CCL8 (biotinylated, synthetic) (parent)
chain 1: EEDDYTAYAPLTCYFT
chain 2: QPDSVSIPITCCFNVINRKIPIQRLESYTRITNIQCPKEAVIFKTKRGKEVCADPKERWVRDSMKHLDQIFQNLKP
B2: peptide HD2 (from tick evasin EVA4) / CCL17 (biotinylated, synthetic) (parent)
chain 1: EEDDYTAYAPLTCYFT
chain 2: ARGTNVGRECCLEYFKGAIPLRKLKTWYQTSEDCSRDAIVFVTVQGRAICSDPNNKRVKNAVKYLQSLERS
B3: peptide HD2 (from tick evasin EVA4) / CCL19 (biotinylated, synthetic) (parent)
chain 1: EEDDYTAYAPLTCYFT
chain 2: GTNDAEDCCLSVTQKPIPGYIVRNFHYLLIKDGCRVPAVVFTTLRGRQLCAPPDQPWVERIIQRLQRTSAKMKRRSS
B4: peptide HD2 (from tick evasin EVA4) / CCL18 (biotinylated, synthetic) (parent)
chain 1: EEDDYTAYAPLTCYFT
chain 2: AQVGTNKELCCLVYTSWQIPQKFIVDYSETSPQCPKPGVILLTKRGRQICADPNKKWVQKYISDLKLNA

Variants of: B1
Details: with CCL8 (biotinylated, synthetic); scale: log2
With chain 1 P10M the enrichment was -8.02. For chain 1 P10F, the enrichment was -8.93. Variant chain 1 P10H has an enrichment of -7.47. For chain 1 P10I, the enrichment was -7.96. With chain 1 P10V the enrichment was -9.9. Variant chain 1 P10K has an enrichment of -6.48. For chain 1 E2C, the enrichment was -9.53.

Variants of: B2
Details: with CCL17 (biotinylated, synthetic); scale: log2
With chain 1 EEDCYTAYAPLTCYFT [chain 1 D4C] the enrichment was -9.34. With chain 1 CEDDYTAYAPLTCYFT [chain 1 E1C] the enrichment was -9.85. Variant chain 1 EEDDYCAYAPLTCYFT [chain 1 T6C] has an enrichment of -11.2. chain 1 EEDDYTCYAPLTCYFT [chain 1 A7C] gave an enrichment of -9.94. Variant chain 1 EEDDYTAYCPLTCYFT [chain 1 A9C] has an enrichment of -10.2. Work on chain 1 EEDDYTAYPPLTCYFT [chain 1 A9P] yielded an enrichment of -7.91. chain 1 EEDDYTAYDPLTCYFT [chain 1 A9D] gave an enrichment of -8.33. Work on chain 1 EEDDYTAYIPLTCYFT [chain 1 A9I] yielded an enrichment of -10.1. For chain 1 EEDDYTAYKPLTCYFT [chain 1 A9K], the enrichment was -6.73. chain 1 EEDDYTAYAKLTCYFT [chain 1 P10K] gave an enrichment of -7.07. With chain 1 EEDDYTAYASLTCYFT [chain 1 P10S] the enrichment was -9.3. chain 1 EEDDYTAYARLTCYFT [chain 1 P10R] was tested, and the enrichment was -9.18. Variant chain 1 EEDDYTAYAILTCYFT [chain 1 P10I] has an enrichment of -8.54. chain 1 EEDDYTAYAVLTCYFT [chain 1 P10V] gave an enrichment of -10.5. Variant chain 1 EEDDYTAYANLTCYFT [chain 1 P10N] has an enrichment of -8.12. Variant chain 1 EEDDYTAYAHLTCYFT [chain 1 P10H] has an enrichment of -8.06. In the case of chain 1 EEDDYTAYAMLTCYFT [chain 1 P10M], the enrichment is reported as -8.6. chain 1 EEDDYTAYACLTCYFT [chain 1 P10C] gave an enrichment of -9.82. Work on chain 1 EEDDQTAYAPLTCYFT [chain 1 Y5Q] yielded an enrichment of -5.46. In the case of chain 1 EEDDRTAYAPLTCYFT [chain 1 Y5R], the enrichment is reported as -7.15. With chain 1 EEDDKTAYAPLTCYFT [chain 1 Y5K] the enrichment was -5.7. In the case of chain 1 EEDDNTAYAPLTCYFT [chain 1 Y5N], the enrichment is reported as -7.81. chain 1 EEDDETAYAPLTCYFT [chain 1 Y5E] gave an enrichment of -3.59. Work on chain 1 EEDDTTAYAPLTCYFT [chain 1 Y5T] yielded an enrichment of -7.77. chain 1 EEDDYTATAPLTCYFT [chain 1 Y8T] showed an enrichment of -8.59. chain 1 EEDDYTAKAPLTCYFT [chain 1 Y8K] gave an enrichment of -6.17. Variant chain 1 EEDDYTAAAPLTCYFT [chain 1 Y8A] has an enrichment of -8.88. chain 1 EEDDYTADAPLTCYFT [chain 1 Y8D] was tested, and the enrichment was -7.65. chain 1 EEDDYTARAPLTCYFT [chain 1 Y8R] showed an enrichment of -8.29. Variant chain 1 EEDDYTAPAPLTCYFT [chain 1 Y8P] has an enrichment of -7.97. In the case of chain 1 EEDDYTAMAPLTCYFT [chain 1 Y8M], the enrichment is reported as -8.59. Variant chain 1 EEDDYTAGAPLTCYFT [chain 1 Y8G] has an enrichment of -8.81. Variant chain 1 EEDDYTAEAPLTCYFT [chain 1 Y8E] has an enrichment of -6.29. chain 1 EEDDYTANAPLTCYFT [chain 1 Y8N] was tested, and the enrichment was -8.23. Variant chain 1 EEDDYTAIAPLTCYFT [chain 1 Y8I] has an enrichment of -9.49. For chain 1 EEDDYTAQAPLTCYFT [chain 1 Y8Q], the enrichment was -6.46. With chain 1 EEDDYTAYAPLTCEFT [chain 1 Y14E] the enrichment was -8.87. Work on chain 1 EEDDYTAYAPLTCRFT [chain 1 Y14R] yielded an enrichment of -10.2. Variant chain 1 EEDDYTAYAPLTCNFT [chain 1 Y14N] has an enrichment of -7. With chain 1 EEDDYTAYAPLTCDFT [chain 1 Y14D] the enrichment was -7.63. chain 1 EECDYTAYAPLTCYFT [chain 1 D3C] gave an enrichment of -10. With chain 1 EEDDYTAYAPLTDYFT [chain 1 C13D] the enrichment was -9.26. Work on chain 1 EEDDYTAYAPLTAYFT [chain 1 C13A] yielded an enrichment of -10.7. Variant chain 1 EEDDYTAYAPLTGYFT [chain 1 C13G] has an enrichment of -10.5. chain 1 EEDDYTAYAPLTHYFT [chain 1 C13H] gave an enrichment of -8.75. For chain 1 EEDDYTAYAPLTWYFT [chain 1 C13W], the enrichment was -9.75. Work on chain 1 EEDDYTAYAPLTKYFT [chain 1 C13K] yielded an enrichment of -9.23.

Variants of: B3
Details: with CCL19 (biotinylated, synthetic); scale: log2
chain 1 EEHDYTAYAPLTCYFT [chain 1 D3H] gave an enrichment of -5.94. Variant chain 1 EEDDYTAYADLTCYFT [chain 1 P10D] has an enrichment of -7.38. chain 1 EEDDGTAYAPLTCYFT [chain 1 Y5G] was tested, and the enrichment was -6.08. Work on chain 1 EEDDYTAYAPLDCYFT [chain 1 T12D] yielded an enrichment of -7.63. For chain 1 EEDAYTAYAPLTCYFT [chain 1 D4A], the enrichment was -7.05. For chain 1 EEDCYTAYAPLTCYFT [chain 1 D4C], the enrichment was -8.21. chain 1 EEDPYTAYAPLTCYFT [chain 1 D4P] was tested, and the enrichment was -6.04. Variant chain 1 EEDKYTAYAPLTCYFT [chain 1 D4K] has an enrichment of -5.85. chain 1 EEDDYTAYGPLTCYFT [chain 1 A9G] showed an enrichment of -7.67. In the case of chain 1 EEDDYTAYAPLTKYFT [chain 1 C13K], the enrichment is reported as -8.09. chain 1 EEDDYTAYAPLTEYFT [chain 1 C13E] gave an enrichment of -8.9. In the case of chain 1 EEDDYTAYAPLTWYFT [chain 1 C13W], the enrichment is reported as -8.62. chain 1 EEDDYTAYAPGTCYFT [chain 1 L11G] showed an enrichment of -9.22. Work on chain 1 EEDDYTANAPLTCYFT [chain 1 Y8N] yielded an enrichment of -7.1. In the case of chain 1 EEDDYTADAPLTCYFT [chain 1 Y8D], the enrichment is reported as -6.51. chain 1 EEDDYTAPAPLTCYFT [chain 1 Y8P] showed an enrichment of -6.84.

Variants of: B4
Details: with CCL18 (biotinylated, synthetic); scale: log2
Work on chain 1 EEDDYCAYAPLTCYFT [chain 1 T6C] yielded an enrichment of -11.3. Work on chain 1 EEDDYTARAPLTCYFT [chain 1 Y8R] yielded an enrichment of -8.38. chain 1 EEDDYTAKAPLTCYFT [chain 1 Y8K] showed an enrichment of -6.27. For chain 1 EEDDYTAEAPLTCYFT [chain 1 Y8E], the enrichment was -6.38. In the case of chain 1 EEDDKTAYAPLTCYFT [chain 1 Y5K], the enrichment is reported as -5.8. With chain 1 EEDDYTAYAPLTCPFT [chain 1 Y14P] the enrichment was -9.05. chain 1 EEDDYTCYAPLTCYFT [chain 1 A7C] showed an enrichment of -10. chain 1 CEDDYTAYAPLTCYFT [chain 1 E1C] was tested, and the enrichment was -9.95. With chain 1 EEDDYTAYDPLTCYFT [chain 1 A9D] the enrichment was -8.43. With chain 1 EEDDYTAYACLTCYFT [chain 1 P10C] the enrichment was -9.92. In the case of chain 1 EEDDYTAYAKLTCYFT [chain 1 P10K], the enrichment is reported as -7.16. chain 1 EEDDYTAYASLTCYFT [chain 1 P10S] was tested, and the enrichment was -9.39. chain 1 EEDDYTAYAMLTCYFT [chain 1 P10M] showed an enrichment of -8.7. For chain 1 EEDDYTAYARLTCYFT [chain 1 P10R], the enrichment was -9.28. In the case of chain 1 EEDDYTAYATLTCYFT [chain 1 P10T], the enrichment is reported as -8.06. Variant chain 1 EEDDYTAYAILTCYFT [chain 1 P10I] has an enrichment of -8.64. Work on chain 1 EEDDYTAYAELTCYFT [chain 1 P10E] yielded an enrichment of -8.1. In the case of chain 1 EEDDYTAYAHLTCYFT [chain 1 P10H], the enrichment is reported as -8.15. chain 1 EEDDYTAYAPLTCYFC [chain 1 T16C] was tested, and the enrichment was -7.88. chain 1 EECDYTAYAPLTCYFT [chain 1 D3C] showed an enrichment of -10.1. chain 1 EEDDYTAYAPLTSYFT [chain 1 C13S] showed an enrichment of -9.93. For chain 1 EEDDYTAYAPLTGYFT [chain 1 C13G], the enrichment was -10.6. In the case of chain 1 EEDDYTAYAPLTKYFT [chain 1 C13K], the enrichment is reported as -9.32. Variant chain 1 EEDDYTAYAPLTEYFT [chain 1 C13E] has an enrichment of -10.1. chain 1 EEDDYTAYAPLTHYFT [chain 1 C13H] showed an enrichment of -8.85. chain 1 EEDDYTAYAPLTDYFT [chain 1 C13D] gave an enrichment of -9.35. In the case of chain 1 EEDDYTAYAPLTAYFT [chain 1 C13A], the enrichment is reported as -10.8. chain 1 EEDCYTAYAPLTCYFT [chain 1 D4C] was tested, and the enrichment was -9.44.
